The supplement of paper PMC9170038

System: MS2 coat protein
Experiment: apparent KD of MS2 coat protein; designed switch direction (-1 OFF switch, 1 ON switch): -1; higher = weaker reporter binding
Procedure, shortened: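 Stalled E. coli RNA polymerase transcribed designed RNA switches on Illumina chips, which were then titrated with SNAP-549-labelled MS2 coat protein, doubling from 0.7 or 1.5 nM to 3 µM. Steps lasted from 0.8–1.5 h at the lowest concentration to 10–20 min at the highest. The apparent KD is each design's median over clusters of curve-fitted normalised fluorescence.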

[1] = Eterna round: R95, input ligand: microRNA oligo, concentration not stated
[2] = input ligand: microRNA oligo, concentration not stated
[3] = Eterna round: R95, input ligand: FMN 200 uM
[4] = Eterna round: R95, input ligand: none

| Sequence | apparent KD of MS2 coat protein [1] [nM] | apparent KD of MS2 coat protein (input ligand: FMN 200 uM) [nM] | apparent KD of MS2 coat protein [2] [nM] | apparent KD of MS2 coat protein (input ligand: none) [nM] | apparent KD of MS2 coat protein [3] [nM] | apparent KD of MS2 coat protein [4] [nM] |
| --- | --- | --- | --- | --- | --- | --- |
| UAGGUGUGAGGAUAUGGUAAAGAUAAAAUGAUGAAAGAACUCCAGAAGGCACAUGAGGAUCACCCAUGUAGAUG [Mat - Exclusion 4 - Mod of JL - D33] (puzzle: Exclusion 4) | 28.3 | – | – | – | – | – |
| GAACUGAGGCAAAGCUUUAGUCGUACAUGAGGAUCACCCAUGUAGGAUAUGGUAGGCAAAGCUUACCAGAAGGACAGAGUGAUC [Mat - Exclusion NG 3 - Mod of JL - D60] (Eterna round: R96, puzzle: Exclusion NG 3) | – | 498 | 260 | 257 | – | – |
| CCUCGACAUGAGGAUCACCCAUGUCAGGAUAUUGUGUCUCGGGUUUUUUACCGAAAGGCGAGAAGGGAUGUGUG [LRO-Excl1-12] (puzzle: Exclusion 1) | 13.9 | – | – | – | – | – |
| UCAGAGCGAGGAUAUGCUGGUGUUAUUCACAUUUGUCCGCGACAUGAGGAUCACCCAUGUAGAAGGCGUAGCCA [Eternabot (L2) Solution 44] (Eterna round: R97, puzzle: Exclusion 2) | – | 104 | – | 76.9 | – | – |
| GGACCGUGUGUGAGGAUAUGCUGGUCCUUGGAUCAGCAGAAGGCACAUGAGGAUCACCCAUGUGGUGUCGGUCC [Eli bmx4 4.35] (Eterna round: R97, puzzle: Brourd's mod of Exclusion 4) | – | 182 | – | 1780 | – | – |
| GUGCCGCGAGGAUAUACAGACGGGUCCAAUACGUGUCUCGGACUUGAGGAUCACCCAAGUAGAAGGCUUUUCAG [LRO-Excl2-11-mod _r4_621 by salish99] (Eterna round: R97, puzzle: Exclusion 2) | – | 27.7 | – | 27.7 | – | – |
| GACUUGUCAGGAUAUCUUACAUAAACAUCGUAGUUACAAUUGGAGAAGGGACAUGAGGAUCACCCAUGUUUGCC [tap-tap-tappy30] (Eterna round: R97, puzzle: Exclusion 4) | – | 16.8 | – | 17.5 | – | – |
| GGCCCUAAGGUCAGAUCCACAAGCUUUUUGCUCGUUUUAACAUGAGGAUCACCCAUGUCUAGUGGAUUUGAUCCUCA [Sensor v3, turn-off variant 2 (MOD of Indiso v.5)] (puzzle: Sensor v3, turn-off variant 2) | 14.5 | – | – | – | 36.2 | 41.3 |
| GUGCUAUAGGAAGGAUAUACUUCAUUGUUUAAACAUGAGGAUCACCCAUGUAACCUUAUGUAUGUGUAGAAGGUCCAUAGCUUA (Eterna round: R96, puzzle: Exclusion NG 2) | – | 56.9 | 25.1 | 30.2 | – | – |
| AACGCGUCAGGAUAUAGCGAAACUUAGGUAGUACAACCAUACUAGAAGGGACAUGAGGAUCACCCAUGUGGGUA [JR_Exc004_Sub210] (Eterna round: R96, puzzle: Exclusion 4) | – | 171 | 104 | 142 | – | – |
| AAUAACAGAGGAUAUACUAUUUUAUGUGUUUAUUGUUUUGAACAUGAGGAUCACCCAUGUAGAAGGCUGAAUAA [JMF 24] (puzzle: Exclusion 2) | 22.3 | – | – | – | – | – |
| CUUUUGUGAGGAUAUUAGUAGUAAAUAAAUAAAAUUACUACUGAGAAGGCACAUGAGGAUCACCCAUGUUUCUC [salish99_ex4_r3_065] (Eterna round: R96, puzzle: Exclusion 4) | – | 278 | 31.2 | 35.5 | – | – |
| AAAAUGUGAGGAUAUCACGGAGCCUCGCAUGACGAGACUCCUGAGAAGGCACAUGAGGAUCACCCAUGUCCUGU [EX4 A.10] (Eterna round: R97, puzzle: Exclusion 4) | – | 382 | – | 57 | – | – |
| CAUAGUUACUCAGGAUAUCUUACAUGAGGAUCACCCAUGUAAUAAAUGAGAAUUUCGAAUGUAUAAGAGAAGGGAGAAAUCUAC [Ostracism 58 - Jieux - Exclusion NG 2] (Eterna round: R96, puzzle: Exclusion NG 2) | – | 15.9 | 14 | 17.6 | – | – |
| GAGAAACAUGAGGAUCACCCAUGUGAGGAUAUGAAAAAGAAAAGAAAAGAAAGAAGAAUCAGAAGGCACAAAGU [salish99-ex1_r3_088] (puzzle: Exclusion 1) | 29.7 | – | – | – | 31.8 | 32.9 |
| UGUGUAACGGAGGAUAUAGGACUUCAACGAAGACUAGAAGGCCGAACAUGAGGAUCACCCAUGUGGUCCUCCGU [Dicesoqu] (puzzle: Exclusion 6) | 13.2 | – | – | – | – | – |

| Sequence | apparent KD of MS2 coat protein [1] [nM] | apparent KD of MS2 coat protein (input ligand: FMN 200 uM) [nM] | apparent KD of MS2 coat protein [2] [nM] | apparent KD of MS2 coat protein (input ligand: none) [nM] | apparent KD of MS2 coat protein [3] [nM] | apparent KD of MS2 coat protein [4] [nM] |
| --- | --- | --- | --- | --- | --- | --- |
| UAAUACGAUGUCAGGAUAUGUAAGACACUUGUAACACAGAAGGGACAUGAGGAUCACCCAUGUAAGGGCUCUUC [Rimala] (puzzle: Brourd's mod of Exclusion 4) | 20.4 | – | – | – | 51.4 | 22.6 |
| AAGCGCGUAGGAUAUACAUGAGGAUCACCCAUGUGAGGAAGGAGUUGGAAGUGUGGAAGUAGAAGGACGGAGUG [JR_Exclu3_Sub078] (puzzle: Exclusion 3) | 44.3 | – | – | – | 35.4 | 41.7 |
| AAGGUCAAGAAUGGAAAUUAAAUACAUGAGGAUCACCCAUGUCAGGAUAUCCAGUAGAGACCUAGGGAGAAGGGACAUGAAAAG [Esonanza] (Eterna round: R96, puzzle: Exclusion NG 3) | – | 16.1 | 10.3 | 14.7 | – | – |
| GCCACGGGAGGAUAUACAUAGGAGUUCUCUUCCUGCUCGAGACAUGAGGAUCACCCAUGUAGAAGGCCCGCUGC [Eternabot (L2) Solution 17] (Eterna round: R97, puzzle: Exclusion 2) | – | 62.2 | – | 385 | – | – |
| AACAGCACAGGAUAUACAUGAGGAUCACCCAUGUGAGAAUUAAGUAGAUUGCCACAGAGUAGAAGGGUGCUGGA [Ruby 99] (Eterna round: R96, puzzle: Exclusion 3) | – | 88.9 | 36.4 | 38.9 | – | – |
| GCCCGUGGGCAAGGAUAUCCUACGCUGUUCUGGUUCGUGUCUGUCACAUGAGGAUCACCCAUGUGGGAGAAGGUGCACUAGGGU [Design 53] (Eterna round: R96, puzzle: Exclusion NG 2) | – | 19.7 | 11.1 | 16.9 | – | – |
| AGAAACAGAGGAUAUACUUGAGGAUCACCCAAGUGUCACGGAAACACUGUGCUCCUUUGUAGAAGGCUGGAAUA [Dibeon] (Eterna round: R97, puzzle: Exclusion 3) | – | 382 | – | 63 | – | – |
| GCCUCUCAUGUGAGGAUAUCCGGACUAUACAGACAGGAGAAGGCACAUGAGGAUCACCCAUGUCACGCACACUU [BmEX4 B.5] (Eterna round: R97, puzzle: Brourd's mod of Exclusion 4) | – | 27.1 | – | 189 | – | – |
| AUUAUUACAUAGGAUAUAAAAGAGCUCACUCAGUUAGAAGGAUGUACAUGAGGAUCACCCAUGUGAUUCUGGCU [Eternabot (L2) Solution 58] (Eterna round: R97, puzzle: Exclusion 6) | – | 26.3 | – | 25.2 | – | – |
| AAUAACAAGCAAGAUCCUAACAUGAGGAUCACCCAUGUGCUCGUCUUGUAAAGUACUAUCACGAAAGUGAUAGUACA [Sensor 3, v1 - 48] (Eterna round: R96, puzzle: Sensor v3, turn-off variant 1) | – | 22.3 | 437 | 25.5 | – | – |
| GCCCGUGCGGAGGAUAUUGAUAUCCCAGUCUAUCAAGAAGGCUGCACAUGAGGAUCACCCAUGUGACCUGUGCU [Retiqule] (puzzle: Exclusion 6) | 15.8 | – | – | – | – | – |
| GCUAGAGCAGGAUAUUUAGAUCCUCACAUGAGGAUCACCCAUGUGGCCGAAAGGCUAAGAAGAGAAGGGCUCUAGC [Omei Ex5 E22] (Eterna round: R97, puzzle: Exclusion 5) | – | 199 | – | 789 | – | – |
| AUGUGUAUAGUGAGGAUAUUGCCCAGGAAAUAGGGCAAGAAGGCACAUGAGGAUCACCCAUGUGGAUGUUCUGA [Eternabot (L2) Solution 85] (Eterna round: R97, puzzle: Brourd's mod of Exclusion 4) | – | 412 | – | 37.5 | – | – |
| AAAAUGUGAGGAUAUCAGGUGUGCUAGAGAACUGGUACAUCUGAGAAGGCACAUGAGGAUCACCCAUGUUCUUC [Mat - Exclusion 4 - Mod of JL - D57] (puzzle: Exclusion 4) | 30.9 | – | – | – | – | – |
| UUCCUCGUUGUGAGGAUAUCGUCCGUGUUUUGUUACGAGAAGGCACAUGAGGAUCACCCAUGUUUUUUGUUUUU [JR_BMOE4_Sub075] (puzzle: Brourd's mod of Exclusion 4) | 40 | – | – | – | – | – |
